Measured values as given in patent publication US20230357407A1.

Molecular target: huTIM-3 Fc (R&D; cat.no. 2365-TM) (human) (UniProt Q8TDQ0)
Test: Galectin-9 blocking ELISA: coated Galectin-9 (competitor), 0.1875 ug/ml huTIM-3 Fc with negative control antibody; signal is huTIM-3 Fc bound

huTIM-3 Fc (R&D; cat.no. 2365-TM) (human), sequence (Q8TDQ0 22-200 limits assumed): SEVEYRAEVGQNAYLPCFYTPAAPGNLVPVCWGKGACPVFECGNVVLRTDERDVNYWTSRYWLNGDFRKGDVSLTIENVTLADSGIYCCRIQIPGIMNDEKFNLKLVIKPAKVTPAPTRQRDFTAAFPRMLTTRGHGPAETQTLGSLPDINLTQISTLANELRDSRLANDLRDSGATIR

OD: 1.15 OD450
Substance: negative control antibody (Ctrl mAb)
